PMC12478413 (bioRxiv, 2025)
Where two headings read alike, the source gives them in different places.

Key:
[1] = biological target: recombinant human LIMP2 lumenal domain (residues 36-430) (human) (UniProt Q14108); test: SEC-MALS
[2] = biological target: recombinant GCase E326K variant (human GBA1 residues A40-Q536) (human); test: dynamic light scattering
[3] = biological target: recombinant GCase E326K variant (human GBA1 residues A40-Q536) (human); test: SEC
[4] = biological target: recombinant human LIMP2 lumenal domain (residues 36-430) (human) (UniProt Q14108); test: SPR
[5] = biological target: recombinant human LIMP2 lumenal domain (residues 36-430) (human) (UniProt Q14108); test: SPR; remark: listed apart in the source
[6] = biological target: recombinant GCase E326K+R329A double mutant (human); test: SEC
[7] = biological target: T1, recombinant WT GCase (glucocerebrosidase, human GBA1 residues A40-Q536) (human, UniProt P04062 40-536); test: SPR
T1 sequence (looked up): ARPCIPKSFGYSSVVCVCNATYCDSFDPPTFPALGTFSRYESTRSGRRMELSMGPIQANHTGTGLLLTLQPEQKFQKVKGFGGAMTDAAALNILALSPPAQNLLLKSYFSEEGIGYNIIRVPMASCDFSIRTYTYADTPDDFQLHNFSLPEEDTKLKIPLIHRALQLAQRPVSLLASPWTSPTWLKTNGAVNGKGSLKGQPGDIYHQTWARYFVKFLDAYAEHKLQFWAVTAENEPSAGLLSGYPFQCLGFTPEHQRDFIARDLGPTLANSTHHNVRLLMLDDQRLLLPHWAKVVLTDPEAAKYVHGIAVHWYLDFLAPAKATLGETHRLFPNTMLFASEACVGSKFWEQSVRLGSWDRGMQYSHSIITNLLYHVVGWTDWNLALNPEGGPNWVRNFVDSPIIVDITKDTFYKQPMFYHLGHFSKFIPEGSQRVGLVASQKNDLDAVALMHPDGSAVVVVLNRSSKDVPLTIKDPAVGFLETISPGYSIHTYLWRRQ

[8] = biological target: T1, recombinant WT GCase …; test: SPR; remark: listed apart in the source

Q: Which stoichiometry N (GCase E326K : LIMP2 (2:2)) [1] does the source give for “recombinant GCase E326K variant (human GBA1 residues A40-Q536) (enzyme)” here?
A: Its stoichiometry N (GCase E326K : LIMP2 (2:2)) is 1.

Q: What about the stoichiometry N [2] of the same molecule?
A: The stoichiometry N was 2.

Q: What about the stoichiometry N [3] of the same molecule?
A: Its stoichiometry N is 2.

Q: And the Kd [4]?
A: Its Kd is 2.44 nM.

Q: And the Kd [5]?
A: Its Kd is 3.89 nM.

Q: How did the stoichiometry N [6] turn out when “recombinant GCase E326K+R329A double mutant (enzyme)” was run?
A: Its stoichiometry N is 2.

B1: recombinant human LIMP2 lumenal domain (residues 36-430) (domain or fragment, UniProt Q14108 36-430, looked up)
chain: SIEKKIVLRNGTEAFDSWEKPPLPVYTQFYFFNVTNPEEILRGETPRVEEVGPYTYRELRNKANIQFGDNGTTISAVSNKAYVFERDQSVGDPKIDLIRTLNIPVLTVIEWSQVHFLREIIEAMLKAYQQKLFVTHTVDELLWGYKDEILSLIHVFRPDISPYFGLFYEKNGTNDGDYVFLTGEDSYLNFTKIVEWNGKTSLDWWITDKCNMINGTDGDSFHPLITKDEVLYVFPSDFCRSVYITFSDYESVQGLPAFRYKVPAEILANTSDNAGFCIPEGNCLGSGVLNVSICKNGAPIIMSFPHFYQADERFVSAIEGMHPNQEDHETFVDINPLTGIILKAAKRFQINIYVKKLDDFVETGDIRTMVFPVMYLNESVHIDKETASRLKSMIN
modifications: biotin on the Avitag (BirA, for SPR)
Q: Which Kd [7] does the source give for B1 here?
A: The Kd was 19.9 nM.

Q: And the Kd [8]?
A: The Kd was 14.4 nM.
